Ends that are not written are not given here.
Assays:
[1] = target: T1, CAL (CFTR-associated ligand) PDZ (Homo sapiens, UniProt Q9HD26); assay: SPR
[2] = target: T1, CAL (CFTR-associated ligand) PDZ; assay: ITC

Binder | Kd [1] | Kd [2]
ANSRK(Ac)PTSII [iCAL36 P-5 Ac-K] | 298 µM | –
ANSRWPTSKI [iCAL36 P-1 BB-K] | 20 µM | 20.7 µM
ANSRWPK(Ac)SII [iCAL36 P-3 Ac-K] | 122 µM | 91.9 µM
ANSRWK(Ac)TSII [iCAL36 P-4 Ac-K] | 64.6 µM | 49.4 µM
ANSRWPTSKI [iCAL36 P-1 FB-K] | 27.9 µM | 12.8 µM
ANSRWPTSKI [iCAL36 P-1 Tfa-K] | 22.3 µM | 34.5 µM
ANSRWPTSK(Ac)I [iCAL36 P-1 Ac-K] | 39.5 µM | 26.4 µM

Reference: publication PMC4138078 (2014)
